# Laboratory results reported in IntAct's records for PubMed 31831856.
# B1: Iron-sulfur cluster assembly factor IBA57, mitochondrial (Homo sapiens), Q5T440 (parent)
# chain: MATAALLRGATPGRGGPVWRWRLRAAPRCRLAHSSCSPGGDPTAGAAWACFRLDGRTLLRVRGPDAAPFLLGLLTNELPLPSPAAAGAPPAARAGYAHFLNVQGRTLYDVILYGLQEHSEVSGFLLECDSSVQGALQKHLALYRIRRKVTVEPHPELRVWAVLPSSPEACGAASLQERAGAAAILIRDPRTARMGWRLLTQDEGPALVPGGRLGDLWDYHQHRYLQGVPEGVRDLPPGVALPLESNLAFMNGVSFTKGCYIGQELTARTHHMGVIRKRLFPVRFLDPLPTSGITPGATVLTASGQTVGKFRAGQGNVGLALLWSEKIKGPLHIRASEGAQVALAASVPDWWPTVSK
# partner: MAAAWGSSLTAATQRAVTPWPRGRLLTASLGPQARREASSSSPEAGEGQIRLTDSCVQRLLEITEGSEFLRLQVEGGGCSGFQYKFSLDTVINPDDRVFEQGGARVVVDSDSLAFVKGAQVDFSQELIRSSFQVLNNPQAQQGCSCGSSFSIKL
# Variants of: B1
# Conditions: with isca2_human ISCA2, Q86U28
row,Variant,effect of a mutation on the interaction
1,R146W,disrupting interaction strength
